# Assay results taken from article PMC5830921, “A single N‐terminal phosphomimic disrupts TDP‐43 polymerization, phase separation, and RNA splicing” (The EMBO Journal, 2018).
# B1: TDP-43 N-terminal domain (NTD), wild-type, residues 1-80 (domain or fragment)
# chain: GHMMSEYIRVTEDENDEPIEIPSEDDGTVLLSTVTAQFPGACGLRYRNPVSQCMRGVRLVEGILHAPDAGWGNLVYVVNYPKD
# notes: three additional N-terminal residues left by the cloning strategy and TEV cleavage; TDP-43 N-terminal domain, residues 1-80 (codon of N81 changed to a stop codon); 15N-labelled or natural abundance, depending on the NMR experiment; also called TDP-43 NTD; NTD WT; source: E. coli BL21 Star DE3, purified (Histrap, TEV cleavage, SEC); not shown: Thioredoxin, N-terminal, cleaved; His6, N-terminal, …
# Experiments:
# [1] = molecular target: the molecule itself; assay: AUC; sedimentation equilibrium, 28.28-89.23 μM, 150 mM NaCl, 20°C, 12,000, 25,000 and 43,000 rpm; isodesmic model, single KD for each association step
# [2] = molecular target: the molecule itself; assay: CG-MALS; composition gradient multi-angle light scattering, 20 mM HEPES pH 6.8, 150 mM NaCl, 1 mM DTT; isodesmic self-association model, each addition of a monomer
# [3] = molecular target: the molecule itself; assay: cross-linking; amine cross-linker BS3, 20 mM HEPES pH 7.5, 150 mM NaCl, 1 mM DTT, room temperature 30 min, SDS-PAGE; samples of 10-200 μM
# [4] = molecular target: TDP-43 NTD S48E, residues 1-80 (UniProt Q13148); assay: CG-MALS; composition gradient multi-angle light scattering, 20 mM HEPES pH 6.8, 150 mM NaCl, 1 mM DTT; isodesmic self-association model, each addition of a monomer
# [5] = molecular target: B1; assay: NMR titration; 1H-15N HSQC chemical shift deviations of 10 μM 15N-labelled protein with 90 μM natural abundance partner, against 10 μM alone; conditions: both partners purified
Kd [4] [mM],binding result [5],Binder,Kd [1] [µM],Kd [2] [µM],stoichiometry N [3]
–,–,B1,~40,95,≤ 7
2,binds,"TDP-43 NTD S48E, residues 1-80 (domain or fragment, three additional N-terminal residues left by the cloning strategy and TEV cleavage; TDP-43 N-terminal domain, residues 1-80, phosphomimetic S48E; 15N-, 13C/15N-labelled or natural abundance, depending on the NMR experiment; also called S48E TDP-43 NTD; S48E 1-80 NTD; source: E. coli BL21 Star DE3, purified (Histrap, TEV cleavage, SEC); not shown: Thioredoxin, N-terminal, cleaved; His6, …) GHMMSEYIRVTEDENDEPIEIPSEDDGTVLLSTVTAQFPGACGLRYRNPVEQCMRGVRLVEGILHAPDAGWGNLVYVVNYPKD",–,–,–
